The record followed here is US20240400654A1.

The chains are these.
B1: KB001 mouse Fab VH S30A (Fab, V domains shown)
VH: EVQLKQSGPGLVAPSQSLSITCTVSGFSLAIYSVHWVRQPPGKGLEWLGMIWGGGSSDYNSALKSRLSISKDNSKSQVFLKMNSLQTDDTAMYYCARNGNFYAMDYWGQGTSVTVSS
VL: QIVLTQSPAIMSASLGERVTMTCTASSSVSSSFLHWYQQKPGSSPQLWIYSTSNLASGVPARFSGSGSGTSYSLTISSMEAEDAATYYCHQYHHSPYIYTFGGGTKLEIK
B2: KB001 mouse Fab VH V34I (Fab, V domains shown)
VH: B1 VH with A30S, V34I
VL: B1 VL
B3: KB001 mouse Fab VH G26N (Fab, V domains shown)
VH: B1 VH with G26N, A30S
VL: B1 VL
B4: KB001 mouse Fab VH Y106N (Fab, V domains shown)
VH: B1 VH with A30S, Y106N
VL: B1 VL
B5: KB001 mouse Fab VH K64A (Fab, V domains shown)
VH: B1 VH with A30S, K64A
VL: B1 VL
B6: KB001 mouse Fab VH S61T (Fab, V domains shown)
VH: B1 VH with A30S, S61T
VL: B1 VL
B7: KB001 mouse Fab VH S65V (Fab, V domains shown)
VH: B1 VH with A30S, S65V
VL: B1 VL
B8: KB001 mouse Fab VH N100E (Fab, V domains shown)
VH: B1 VH with A30S, N100E
VL: B1 VL
B9: KB001 mouse Fab VH Y59V (Fab, V domains shown)
VH: B1 VH with A30S, Y59V
VL: B1 VL
B10: KB001 mouse Fab VH Y106T (Fab, V domains shown)
VH: B1 VH with A30S, Y106T
VL: B1 VL
B11: KB001 mouse Fab VH Y106S (Fab, V domains shown)
VH: B1 VH with A30S, Y106S
VL: B1 VL
B12: KB001 mouse Fab VH G99S (Fab, V domains shown)
VH: B1 VH with A30S, G99S
VL: B1 VL
B13: KB001 mouse Fab VH S65T (Fab, V domains shown)
VH: B1 VH with A30S, S65T
VL: B1 VL
B14: KB001 mouse Fab VH S65D (Fab, V domains shown)
VH: B1 VH with A30S, S65D
VL: B1 VL
B15: KB001 mouse Fab VH S61N (Fab, V domains shown)
VH: B1 VH with A30S, S61N
VL: B1 VL
B16: KB001 mouse Fab VH Y106Q (Fab, V domains shown)
VH: B1 VH with A30S, Y106Q
VL: B1 VL
B17: KB001 mouse Fab VH G99Y (Fab, V domains shown)
VH: B1 VH with A30S, G99Y
VL: B1 VL
B18: KB001 mouse Fab VH S57A (Fab, V domains shown)
VH: B1 VH with A30S, S57A
VL: B1 VL
B19: KB001 mouse Fab VH Y106W (Fab, V domains shown)
VH: B1 VH with A30S, Y106W
VL: B1 VL
B20: KB001 mouse Fab VH Y106F (Fab, V domains shown)
VH: B1 VH with A30S, Y106F
VL: B1 VL
B21: KB001 mouse Fab VH S57Q (Fab, V domains shown)
VH: B1 VH with A30S, S57Q
VL: B1 VL
B22: KB001 mouse Fab VH Y106I (Fab, V domains shown)
VH: B1 VH with A30S, Y106I
VL: B1 VL
B23: KB001 mouse Fab VH S56A (Fab, V domains shown)
VH: B1 VH with A30S, S56A
VL: B1 VL
B24: KB001 mouse Fab VH G26D (Fab, V domains shown)
VH: B1 VH with G26D, A30S
VL: B1 VL
B25: KB001 mouse Fab VH Y106R (Fab, V domains shown)
VH: B1 VH with A30S, Y106R
VL: B1 VL
B26: KB001 mouse Fab VH I31V (Fab, V domains shown)
VH: B1 VH with A30S, I31V
VL: B1 VL
B27: KB001 mouse Fab VH Y106A (Fab, V domains shown)
VH: B1 VH with A30S, Y106A
VL: B1 VL
B28: KB001 mouse Fab VH S28H (Fab, V domains shown)
VH: B1 VH with S28H, A30S
VL: B1 VL
B29: KB001 mouse Fab VH I31M (Fab, V domains shown)
VH: B1 VH with A30S, I31M
VL: B1 VL
B30: KB001 mouse Fab VH S57V (Fab, V domains shown)
VH: B1 VH with A30S, S57V
VL: B1 VL
B31: KB001 mouse Fab VH Y106K (Fab, V domains shown)
VH: B1 VH with A30S, Y106K
VL: B1 VL
B32: KB001 mouse Fab VH Y106M (Fab, V domains shown)
VH: B1 VH with A30S, Y106M
VL: B1 VL
B33: KB001 mouse Fab VH A103S (Fab, V domains shown)
VH: B1 VH with A30S, A103S
VL: B1 VL
B34: KB001 mouse Fab VH Y106V (Fab, V domains shown)
VH: B1 VH with A30S, Y106V
VL: B1 VL
B35: KB001 mouse Fab VH Y106L (Fab, V domains shown)
VH: B1 VH with A30S, Y106L
VL: B1 VL
B36: KB001 mouse Fab VH I31T (Fab, V domains shown)
VH: B1 VH with A30S, I31T
VL: B1 VL
B37: KB001 mouse Fab VH K64R (Fab, V domains shown)
VH: B1 VH with A30S, K64R
VL: B1 VL

Residue numbers refer to the chain shown, from its start. Numbers in names are those of the source. Where “and” joins values, the source holds several entries; their conditions need not be identical. Equal values may be shown once.

The assay addresses HRgpA-6H (Porphyromonas gingivalis) (UniProt P28784). Description: ELISA, coated HRgpA-6H.
Sequence of UniProt P28784 (P28784 228-860 limits assumed): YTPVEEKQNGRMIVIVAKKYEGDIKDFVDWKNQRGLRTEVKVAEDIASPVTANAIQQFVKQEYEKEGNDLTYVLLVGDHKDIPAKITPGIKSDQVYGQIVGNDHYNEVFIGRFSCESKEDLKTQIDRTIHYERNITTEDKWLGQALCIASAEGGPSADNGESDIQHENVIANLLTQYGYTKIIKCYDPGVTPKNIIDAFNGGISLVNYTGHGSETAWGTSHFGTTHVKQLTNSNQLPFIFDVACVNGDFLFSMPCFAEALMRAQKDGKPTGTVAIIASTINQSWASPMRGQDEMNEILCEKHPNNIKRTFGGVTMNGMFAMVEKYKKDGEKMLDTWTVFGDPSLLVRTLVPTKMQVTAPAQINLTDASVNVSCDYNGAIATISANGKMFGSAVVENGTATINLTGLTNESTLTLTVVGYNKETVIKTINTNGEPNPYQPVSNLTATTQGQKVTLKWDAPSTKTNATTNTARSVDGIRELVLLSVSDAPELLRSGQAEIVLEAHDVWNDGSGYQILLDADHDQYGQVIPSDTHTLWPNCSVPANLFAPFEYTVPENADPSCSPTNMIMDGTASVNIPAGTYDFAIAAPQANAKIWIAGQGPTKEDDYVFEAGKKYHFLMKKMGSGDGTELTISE
Turning to B1, the OD450 nm was 0.534 and 0.499 and 0.494; the Ratio OD(Variant)/OD(WT) is 1.06 and 0.989 and 0.979.

In the case of B2, the OD450 nm was 0.891 and 0.868 and 0.866; the Ratio OD(Variant)/OD(WT) is 1.08 and 1.05 (2×).

In the case of B3, the OD450 nm amounted to 0.445 and the Ratio OD(Variant)/OD(WT) was found to be 0.876.

For B4, the OD450 nm is 0.792 and the Ratio OD(Variant)/OD(WT) was 1.03.

B5: the OD450 nm amounted to 0.89 and the Ratio OD(Variant)/OD(WT) came to 1.08.

Consider B6, for which the OD450 nm was 0.543 and 0.447; the Ratio OD(Variant)/OD(WT) is 1.1 and 0.906.

On to B7, for which the OD450 nm was 0.867 and the Ratio OD(Variant)/OD(WT) came out at 1.05.

As for B8, the OD450 nm turned out to be 0.886 and the Ratio OD(Variant)/OD(WT) worked out at 1.05.

B9: the OD450 nm was 0.83 and 0.79; the Ratio OD(Variant)/OD(WT) is 1.05 and 0.999.

As for B10, the OD450 nm is 0.827 and the Ratio OD(Variant)/OD(WT) was found to be 1.07.

With B11, the OD450 nm is 0.852 and 0.849; the Ratio OD(Variant)/OD(WT) is 1.11 and 1.1.

For the molecule B12, the OD450 nm worked out at 0.809 and the Ratio OD(Variant)/OD(WT) came out at 1.01.

Regarding B13, the OD450 nm was found to be 0.883 and the Ratio OD(Variant)/OD(WT) was found to be 1.07.

B14: the OD450 nm was 0.866 and 0.897; the Ratio OD(Variant)/OD(WT) is 1.05 and 1.08.

Turning to B15, the OD450 nm is 0.537 and the Ratio OD(Variant)/OD(WT) is 1.09.

For B16, the OD450 nm was determined as 0.792 and the Ratio OD(Variant)/OD(WT) was determined as 1.03.

For B17, the OD450 nm came out at 0.835 and the Ratio OD(Variant)/OD(WT) amounted to 1.05.

Consider B18, for which the OD450 nm stood at 0.922 and the Ratio OD(Variant)/OD(WT) is 1.05.

Turning to B19, the OD450 nm was 0.791 and 0.809 and 0.82; the Ratio OD(Variant)/OD(WT) is 1.03 and 1.05 and 1.07.

B20: the OD450 nm is 0.815 and 0.856; the Ratio OD(Variant)/OD(WT) is 1.06 and 1.11.

For the molecule B21, the OD450 nm was 0.915 and 0.863 and 0.836; the Ratio OD(Variant)/OD(WT) is 1.04 and 0.981 and 0.951.

As for B22, the OD450 nm worked out at 0.803 and the Ratio OD(Variant)/OD(WT) is 1.04.

On to B23, for which the OD450 nm was 0.891 and 0.86 and 0.82; the Ratio OD(Variant)/OD(WT) was 1.01 and 0.978 and 0.932.

Regarding B24, the OD450 nm was 0.47 and 0.481; the Ratio OD(Variant)/OD(WT) was 0.925 and 0.947.

Take B25: the OD450 nm is 0.793 and the Ratio OD(Variant)/OD(WT) stood at 1.03.

Consider B26, for which the OD450 nm is 0.537 and 0.521; the Ratio OD(Variant)/OD(WT) was 1.06 and 1.03.

Regarding B27, the OD450 nm is 0.821 and 0.835; the Ratio OD(Variant)/OD(WT) was 1.07 and 1.09.

With B28, the OD450 nm is 0.511 and 0.526; the Ratio OD(Variant)/OD(WT) is 0.946 and 0.974.

For the molecule B29, the OD450 nm was determined as 0.522 and the Ratio OD(Variant)/OD(WT) is 1.03.

Take B30: the OD450 nm is 0.911 and 0.869; the Ratio OD(Variant)/OD(WT) is 1.04 and 0.988.

Regarding B31, the OD450 nm came to 0.807 and the Ratio OD(Variant)/OD(WT) was determined as 1.05.

For the molecule B32, the OD450 nm is 0.794 and 0.84; the Ratio OD(Variant)/OD(WT) is 1.03 and 1.09.

In the case of B33, the OD450 nm is 0.909 and the Ratio OD(Variant)/OD(WT) is 1.05.

For B34, the OD450 nm was 0.795 and 0.84 and 0.802; the Ratio OD(Variant)/OD(WT) is 1.03 and 1.09 and 1.04.

Turning to B35, the OD450 nm amounted to 0.791 and the Ratio OD(Variant)/OD(WT) amounted to 1.03.

Take B36: the OD450 nm was 0.56 and 0.534; the Ratio OD(Variant)/OD(WT) is 1.11 and 1.06.

Take B37: the OD450 nm worked out at 0.87 and the Ratio OD(Variant)/OD(WT) stood at 1.05.
